Columns and labels:
[1] = biological target: T1, CD30 extracellular domain (UniProt P28908); experiment: FP; conditions: 5' DNA primer fd; remainder A = alpha-thio-dA, C = gemcitabine (2',2'-difluoro-dC), G = FANA-G, T = floxuridine (5-fluoro-dU); exact value only in figure
T1 sequence: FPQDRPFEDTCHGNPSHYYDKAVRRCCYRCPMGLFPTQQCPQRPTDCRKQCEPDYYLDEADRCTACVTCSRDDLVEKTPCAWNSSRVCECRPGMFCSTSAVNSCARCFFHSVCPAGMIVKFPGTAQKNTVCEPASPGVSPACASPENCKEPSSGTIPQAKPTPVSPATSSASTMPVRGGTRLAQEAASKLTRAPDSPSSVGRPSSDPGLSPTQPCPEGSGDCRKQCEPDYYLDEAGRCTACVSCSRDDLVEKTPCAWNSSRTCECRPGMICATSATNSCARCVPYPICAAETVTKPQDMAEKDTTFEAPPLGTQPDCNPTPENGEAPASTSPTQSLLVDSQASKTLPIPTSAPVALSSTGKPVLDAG

[2] = biological target: L1-CAM (CD171) extracellular domain (UniProt P32004); experiment: FP; conditions: 5' DNA primer fd; remainder A = alpha-thio-dA, C = gemcitabine (2',2'-difluoro-dC), G = FANA-G, T = floxuridine (5-fluoro-dU); exact value only in figure
L1-CAM (CD171) extracellular domain, sequence (P32004 20-1120): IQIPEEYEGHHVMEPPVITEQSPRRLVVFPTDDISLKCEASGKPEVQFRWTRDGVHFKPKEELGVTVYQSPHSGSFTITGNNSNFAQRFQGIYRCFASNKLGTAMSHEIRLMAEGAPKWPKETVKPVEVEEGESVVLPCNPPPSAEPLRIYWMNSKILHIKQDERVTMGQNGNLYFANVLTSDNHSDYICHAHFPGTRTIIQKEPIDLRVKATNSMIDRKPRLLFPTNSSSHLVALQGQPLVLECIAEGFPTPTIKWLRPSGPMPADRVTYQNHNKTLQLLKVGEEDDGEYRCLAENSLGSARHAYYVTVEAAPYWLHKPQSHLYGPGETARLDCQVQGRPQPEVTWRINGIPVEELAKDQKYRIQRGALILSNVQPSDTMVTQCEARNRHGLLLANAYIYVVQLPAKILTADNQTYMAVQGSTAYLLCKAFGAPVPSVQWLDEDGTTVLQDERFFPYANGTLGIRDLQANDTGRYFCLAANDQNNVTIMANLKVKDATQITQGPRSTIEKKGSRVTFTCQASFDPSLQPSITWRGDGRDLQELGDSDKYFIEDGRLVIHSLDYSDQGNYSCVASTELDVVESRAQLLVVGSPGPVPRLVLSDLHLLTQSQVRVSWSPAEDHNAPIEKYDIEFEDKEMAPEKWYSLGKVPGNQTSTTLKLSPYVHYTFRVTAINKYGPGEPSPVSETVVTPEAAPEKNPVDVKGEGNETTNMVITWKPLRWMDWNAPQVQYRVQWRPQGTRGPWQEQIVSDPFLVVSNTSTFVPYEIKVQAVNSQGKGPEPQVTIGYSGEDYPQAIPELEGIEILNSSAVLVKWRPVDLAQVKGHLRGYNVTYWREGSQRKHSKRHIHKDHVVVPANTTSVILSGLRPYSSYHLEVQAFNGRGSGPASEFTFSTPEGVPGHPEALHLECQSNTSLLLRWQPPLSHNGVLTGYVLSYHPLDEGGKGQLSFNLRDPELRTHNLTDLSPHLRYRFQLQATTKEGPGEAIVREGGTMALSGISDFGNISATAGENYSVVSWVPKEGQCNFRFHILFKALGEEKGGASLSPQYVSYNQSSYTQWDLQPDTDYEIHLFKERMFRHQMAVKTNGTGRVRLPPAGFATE

Sequence | Kd [1] | Kd [2]
CCCCTTATTAGCGTTTGCCATTTCATGGTATTGATAAAGCTGTTGCCGATACTTGGAACAATTTCT [CD30_I30] | < 100 nM | –
CCCCTTATTAGCGTTTGCCAGCGACGCCGTTCAACCAGATATTGAAGCAGAACGCAAAAAGAGAGATGAGATTGAGGCT [L1CAM_I1] | – | < 100 nM
CCCCTTATTAGCGTTTGCCATAGATGTGGTAGAAGTCGTCATTTGGCGAGAAAGCTCAGTCTCAGG [CD30_I3] | > 100 nM | –
CCCCTTATTAGCGTTTGCCAACGACGCGACGCCGTTCAACCAGATATTGAAGCAGAACGCAAAAAGA [L1-CAM_Icore] | – | < 100 nM
CCCCTTATTAGCGTTTGCCATAGATGTGGTAGAAGTCGTCATTTGGCGAGAAAGCTCAGTCTCAGG [L1-CAM_I6] | – | < 100 nM
